For the test, the target named is Factor X (FX) (Homo sapiens (Human)) (UniProt P00742).

Numbering of substitutions follows the chain as printed. Names and notes keep the numbering of the source.

Sequence of Factor X (FX) (Homo sapiens (Human)) (P00742 41-488 limits assumed): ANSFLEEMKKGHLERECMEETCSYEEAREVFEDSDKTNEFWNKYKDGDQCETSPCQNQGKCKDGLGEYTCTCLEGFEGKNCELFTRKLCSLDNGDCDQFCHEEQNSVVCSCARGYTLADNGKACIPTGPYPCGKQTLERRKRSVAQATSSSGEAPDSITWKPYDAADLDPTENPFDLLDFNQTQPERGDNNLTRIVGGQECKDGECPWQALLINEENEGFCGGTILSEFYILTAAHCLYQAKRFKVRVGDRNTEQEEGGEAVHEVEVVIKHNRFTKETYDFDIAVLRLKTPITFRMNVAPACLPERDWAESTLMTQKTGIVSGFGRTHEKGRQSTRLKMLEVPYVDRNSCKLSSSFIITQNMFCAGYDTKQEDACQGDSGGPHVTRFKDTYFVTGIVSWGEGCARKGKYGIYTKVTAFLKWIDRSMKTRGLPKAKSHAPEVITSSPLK

B1: FVIIa variant S222A/Gla Swap FIX (enzyme)
chain: YNSGKLEEFVQGNLERECMEEKCSFEEAREVFENTERTTEFWKQYSDGDQCASSPCQNGGSCKDQLQSYICFCLPAFEGRNCETHKDDQLICVNENGGCEQYCSDHTGTKRSCRCHEGYSLLADGVSCTPTVEYPCGKIPILEKRNASKPQGRIVGGKVCPKGECPWQVLLLVNGAQLCGGTLINTIWVVSAAHCFDKIKNWRNLIAVLGEHDLSEHDGDEQARRVAQVIIPSTYVPGTTNHDIALLRLHQPVVLTDHVVPLCLPERTFSERTLAFVRFSLVSGWGQLLDRGATALELMVLNVPRLMTQDCLQQSRKVGDSPNITEYMFCAGYSDGSKDSCKGDSGGPHATHYRGTWYLTGIVSWGQGCATVGHFGVYTRVSQYIEWLQKLMRSEPRPGVLLRAPFP
B1: the kcat/KM, TF-Dependent Indirect Assay amounted to 6.55e+07 M⁻¹ s⁻¹.

B2: FVIIa variant Q286R/S222A/Gla Swap FIX (enzyme)
chain: B1 chain with Q287R
Take B2: the kcat/KM, TF-Dependent Indirect Assay was found to be 1.61e+08 M⁻¹ s⁻¹.

B3: FVIIa variant H257A/Gla Swap FIX (enzyme)
chain: B1 chain with A223S, H258A
Take B3: the kcat/KM, TF-Dependent Indirect Assay came to 6.45e+07 M⁻¹ s⁻¹.

B4: FVIIa variant Q286R/Gla Swap FIX (enzyme)
chain: B1 chain with A223S, Q287R
Turning to B4, the kcat/KM, TF-Dependent Indirect Assay is 1.11e+08 M⁻¹ s⁻¹.

B5: FVIIa variant Q286R/S222A/H257A/Gla Swap FIX (enzyme)
chain: B1 chain with H258A, Q287R
With B5, the kcat/KM, TF-Dependent Indirect Assay stood at 7.75e+07 M⁻¹ s⁻¹.

B6: FVIIa variant Q286R/H257A/Gla Swap FIX (enzyme)
chain: B1 chain with A223S, H258A, Q287R
As to B6, the kcat/KM, TF-Dependent Indirect Assay is 8.09e+07 M⁻¹ s⁻¹.

B7: FVIIa variant S222A/H257A/Gla Swap FIX (enzyme)
chain: B1 chain with H258A
As to B7, the kcat/KM, TF-Dependent Indirect Assay turned out to be 5.77e+07 M⁻¹ s⁻¹.

B8: FVIIa variant P406ins… (enzyme)
chain: ANAFLEELRPGSLERECKEEQCSFEEAREIFKDAERTKLFWISYSDGDQCASSPCQNGGSCKDQLQSYICFCLPAFEGRNCETHKDDQLICVNENGGCEQYCSDHTGTKRSCRCHEGYSLLADGVSCTPTVEYPCGKIPILEKRNASKPQGRIVGGKVCPKGECPWQVLLLVNGAQLCGGTLINTIWVVSAAHCFDKIKNWRNLIAVLGEHDLSEHDGDEQSRRVAQVIIPSTYVPGTTNHDIALLRLHQPVVLTDHVVPLCLPERTFSERTLAFVRFSLVSGWGQLLDRGATALELMVLNVPRLMTQDCLQQSRKVGDSPNITEYMFCAGYSDGSKDSCKGDSGGPHATHYRGTWYLTGIVSWGQGCATVGHFGVYTRVSQYIEWLQKLMRSEPRPGVLLRAPFPCSFGRGDIRNVC
Turning to B8, the kcat/KM, TF-Dependent Indirect Assay is 6.16e+07 M⁻¹ s⁻¹.

B9: FVIIa variant P406ins… (enzyme)
chain: ANAFLEELRPGSLERECKEEQCSFEEAREIFKDAERTKLFWISYSDGDQCASSPCQNGGSCKDQLQSYICFCLPAFEGRNCETHKDDQLICVNENGGCEQYCSDHTGTKRSCRCHEGYSLLADGVSCTPTVEYPCGKIPILEKRNASKPQGRIVGGKVCPKGECPWQVLLLVNGAQLCGGTLINTIWVVSAAHCFDKIKNWRNLIAVLGEHDLSEHDGDEQSRRVAQVIIPSTYVPGTTNHDIALLRLHQPVVLTDHVVPLCLPERTFSERTLAFVRFSLVSGWGQLLDRGATALELMVLNVPRLMTQDCLQQSRKVGDSPNITEYMFCAGYSDGSKDSCKGDSGGPHATHYRGTWYLTGIVSWGQGCATVGHFGVYTRVSQYIEWLQKLMRSEPRPGVLLRAPFPGGGSCSFGRGDIRNVC
As to B9, the kcat/KM, TF-Dependent Indirect Assay was 7.47e+07 M⁻¹ s⁻¹.

B10: FVIIa variant S103S111delins… (enzyme)
chain: ANAFLEELRPGSLERECKEEQCSFEEAREIFKDAERTKLFWISYSDGDQCASSPCQNGGSCKDQLQSYICFCLPAFEGRNCETHKDDQLICVNENGGCEQYCSFGRGDIRNVCRCHEGYSLLADGVSCTPTVEYPCGKIPILEKRNASKPQGRIVGGKVCPKGECPWQVLLLVNGAQLCGGTLINTIWVVSAAHCFDKIKNWRNLIAVLGEHDLSEHDGDEQSRRVAQVIIPSTYVPGTTNHDIALLRLHQPVVLTDHVVPLCLPERTFSERTLAFVRFSLVSGWGQLLDRGATALELMVLNVPRLMTQDCLQQSRKVGDSPNITEYMFCAGYSDGSKDSCKGDSGGPHATHYRGTWYLTGIVSWGQGCATVGHFGVYTRVSQYIEWLQKLMRSEPRPGVLLRAPFP
For the molecule B10, the kcat/KM, TF-Dependent Indirect Assay came to 4.83e+07 M⁻¹ s⁻¹.

B11: FVIIa variant Q366S (enzyme)
chain: ANAFLEELRPGSLERECKEEQCSFEEAREIFKDAERTKLFWISYSDGDQCASSPCQNGGSCKDQLQSYICFCLPAFEGRNCETHKDDQLICVNENGGCEQYCSDHTGTKRSCRCHEGYSLLADGVSCTPTVEYPCGKIPILEKRNASKPQGRIVGGKVCPKGECPWQVLLLVNGAQLCGGTLINTIWVVSAAHCFDKIKNWRNLIAVLGEHDLSEHDGDEQSRRVAQVIIPSTYVPGTTNHDIALLRLHQPVVLTDHVVPLCLPERTFSERTLAFVRFSLVSGWGQLLDRGATALELMVLNVPRLMTQDCLQQSRKVGDSPNITEYMFCAGYSDGSKDSCKGDSGGPHATHYRGTWYLTGIVSWGSGCATVGHFGVYTRVSQYIEWLQKLMRSEPRPGVLLRAPFP
Turning to B11, the kcat/KM, TF-Dependent Indirect Assay worked out at 2.7e+07 M⁻¹ s⁻¹.

B12: FVIIa variant Q286R/H257A (enzyme)
chain: B11 chain with H257A, Q286R, S366Q
For B12, the kcat/KM, TF-Dependent Indirect Assay turned out to be 1.27e+08 M⁻¹ s⁻¹.

B13: FVIIa variant Q286R/M298Q/K341Q (enzyme)
chain: B11 chain with Q286R, M298Q, K341Q, S366Q
As for B13, the kcat/KM, TF-Dependent Indirect Assay stood at 3.93e+07 M⁻¹ s⁻¹.

B14: FVIIa variant Q286R/M298Q/K199E (enzyme)
chain: B11 chain with K199E, Q286R, M298Q, S366Q
As for B14, the kcat/KM, TF-Dependent Indirect Assay came to 7.74e+07 M⁻¹ s⁻¹.

B15: FVIIa variant E394N/P395A/R396S (enzyme)
chain: B11 chain with S366Q, E394N, P395A, R396S
With B15, the kcat/KM, TF-Dependent Indirect Assay was 5.32e+07 M⁻¹ s⁻¹.

B16: FVIIa variant R202S (enzyme)
chain: B11 chain with R202S, S366Q
As to B16, the kcat/KM, TF-Dependent Indirect Assay stood at 2.57e+07 M⁻¹ s⁻¹.

B17: FVIIa variant V158D/L287T/M298K (enzyme)
chain: B11 chain with V158D, L287T, M298K, S366Q
Take B17: the kcat/KM, TF-Dependent Indirect Assay stood at 4.48e+06 M⁻¹ s⁻¹.

B18: FVIIa variant Q366V (enzyme)
chain: B11 chain with S366V
Take B18: the kcat/KM, TF-Dependent Indirect Assay worked out at 6.59e+07 M⁻¹ s⁻¹.

B19: FVIIa variant T239Q (enzyme)
chain: B11 chain with T239Q, S366Q
As for B19, the kcat/KM, TF-Dependent Indirect Assay was 1.74e+07 M⁻¹ s⁻¹.

B20: FVIIa variant A122N/G124S (enzyme)
chain: B11 chain with A122N, G124S, S366Q
Consider B20, for which the kcat/KM, TF-Dependent Indirect Assay came to 5.27e+07 M⁻¹ s⁻¹.

B21: FVIIa variant T239L (enzyme)
chain: B11 chain with T239L, S366Q
B21: the kcat/KM, TF-Dependent Indirect Assay turned out to be 3.77e+07 M⁻¹ s⁻¹.

B22: FVIIa variant Q286R/S222A/H257A (enzyme)
chain: B11 chain with S222A, H257A, Q286R, S366Q
On to B22, for which the kcat/KM, TF-Dependent Indirect Assay is 9.51e+07 M⁻¹ s⁻¹.

B23: FVIIa variant A175S (enzyme)
chain: B11 chain with A175S, S366Q
Consider B23, for which the kcat/KM, TF-Dependent Indirect Assay came to 3.32e+07 M⁻¹ s⁻¹.

B24: FVIIa variant A122N/G124S/E394N/P395A/R396S (enzyme)
chain: B11 chain with A122N, G124S, S366Q, E394N, P395A, R396S
With B24, the kcat/KM, TF-Dependent Indirect Assay is 4.88e+07 M⁻¹ s⁻¹.

B25: FVIIa variant T239S (enzyme)
chain: B11 chain with T239S, S366Q
As for B25, the kcat/KM, TF-Dependent Indirect Assay stood at 1.74e+07 M⁻¹ s⁻¹.

B26: FVIIa variant G318N (enzyme)
chain: B11 chain with G318N, S366Q
As for B26, the kcat/KM, TF-Dependent Indirect Assay came out at 5.5e+07 M⁻¹ s⁻¹.

B27: FVIIa variant Q286R/S222A (enzyme)
chain: B11 chain with S222A, Q286R, S366Q
As for B27, the kcat/KM, TF-Dependent Indirect Assay amounted to 1.42e+08 M⁻¹ s⁻¹.

B28: FVIIa variant A292N/A294S (enzyme)
chain: B11 chain with A292N, A294S, S366Q
As for B28, the kcat/KM, TF-Dependent Indirect Assay turned out to be 0 M⁻¹ s⁻¹.

B29: FVIIa variant V158T/L287T/M298K (enzyme)
chain: B11 chain with V158T, L287T, M298K, S366Q
On to B29, for which the kcat/KM, TF-Dependent Indirect Assay is 4.5e+06 M⁻¹ s⁻¹.

B30: FVIIa variant T239V (enzyme)
chain: B11 chain with T239V, S366Q
As for B30, the kcat/KM, TF-Dependent Indirect Assay was determined as 9.57e+07 M⁻¹ s⁻¹.

B31: FVIIa variant T130N/E132S (enzyme)
chain: B11 chain with T130N, E132S, S366Q
Turning to B31, the kcat/KM, TF-Dependent Indirect Assay is 6.35e+07 M⁻¹ s⁻¹.
